Laboratory results as given in paper PMC3359404.

Experiments:
Experiment in all cases: purified protein
Settings in all cases: 10 mM pyruvate, 0.3 mM NADPH, 150 mM PIPES pH 6.6, room temperature
N[C@@H](CCS)C(=O)O = tested on: N[C@@H](CCS)C(=O)O
C[S+](C)CC[C@H](N)C(=O)O = tested on: C[S+](C)CC[C@H](N)C(=O)O
NC(=O)CC[C@H](N)C(=O)O = tested on: NC(=O)CC[C@H](N)C(=O)O
NCC(=O)O = tested on: NCC(=O)O
[1] = tested on: N[C@@H](Cc1c[nH]cn1)C(=O)O
CSCC[C@H](N)C(=O)O = tested on: CSCC[C@H](N)C(=O)O
N=C(N)NOCC[C@H](N)C(=O)O = tested on: N=C(N)NOCC[C@H](N)C(=O)O
N[C@@H](CCO)C(=O)O = tested on: N[C@@H](CCO)C(=O)O
N[C@@H](CS)C(=O)O = tested on: N[C@@H](CS)C(=O)O

Question: For “Ocs (His6-Ocs), octopine synthase (Agrobacterium tumefaciens (strain 15955))”, which Km (N[C@@H](CCS)C(=O)O) is on record?
Answer: 8.9 ± 1.1 mM

Question: And the kcat (N[C@@H](CCS)C(=O)O)?
Answer: 26.7 s⁻¹

Question: What about the kcat/Km (N[C@@H](CCS)C(=O)O) of the same substance?
Answer: 3000 M⁻¹ s⁻¹

Question: What about the Km (C[S+](C)CC[C@H](N)C(=O)O) of the same substance?
Answer: 0.31 ± 0.04 mM

Question: And the kcat (C[S+](C)CC[C@H](N)C(=O)O)?
Answer: 0.817 s⁻¹

Question: What about the kcat/Km (C[S+](C)CC[C@H](N)C(=O)O) of the same substance?
Answer: 2670 M⁻¹ s⁻¹

Question: What about the Km (NC(=O)CC[C@H](N)C(=O)O) of the same substance?
Answer: 5.6 ± 0.6 mM

Question: What about the kcat (NC(=O)CC[C@H](N)C(=O)O) of the same substance?
Answer: 13 s⁻¹

Question: And the kcat/Km (NC(=O)CC[C@H](N)C(=O)O)?
Answer: 2330 M⁻¹ s⁻¹

Question: And the Km (NCC(=O)O)?
Answer: 30 ± 6 mM

Question: And the kcat/Km (NCC(=O)O)?
Answer: 717 M⁻¹ s⁻¹

Question: What about the Km [1] of the same substance?
Answer: 2.0 ± 0.21 mM

Question: And the kcat [1]?
Answer: 20 s⁻¹

Question: What about the kcat/Km [1] of the same substance?
Answer: 10000 M⁻¹ s⁻¹

Question: And the Km (CSCC[C@H](N)C(=O)O)?
Answer: 27 ± 6 mM

Question: What about the kcat (CSCC[C@H](N)C(=O)O) of the same substance?
Answer: 78.3 s⁻¹

Question: What about the kcat/Km (CSCC[C@H](N)C(=O)O) of the same substance?
Answer: 2830 M⁻¹ s⁻¹

Question: And the Km (N=C(N)NOCC[C@H](N)C(=O)O)?
Answer: 2.8 ± 0.5 mM

Question: What about the kcat (N=C(N)NOCC[C@H](N)C(=O)O) of the same substance?
Answer: 16.7 s⁻¹

Question: And the kcat/Km (N=C(N)NOCC[C@H](N)C(=O)O)?
Answer: 6000 M⁻¹ s⁻¹

Question: What about the Km (N[C@@H](CCO)C(=O)O) of the same substance?
Answer: 15 ± 3 mM

Question: And the kcat (N[C@@H](CCO)C(=O)O)?
Answer: 30 s⁻¹

Question: And the kcat/Km (N[C@@H](CCO)C(=O)O)?
Answer: 2000 M⁻¹ s⁻¹

Question: And the Km (N[C@@H](CS)C(=O)O)?
Answer: 11 ± 3 mM

Question: What about the kcat (N[C@@H](CS)C(=O)O) of the same substance?
Answer: 11.2 s⁻¹

Question: What about the kcat/Km (N[C@@H](CS)C(=O)O) of the same substance?
Answer: 1020 M⁻¹ s⁻¹
